Measured values taken from US20180230218A1 (IMMUNOGEN, published 2018).

B1: hucMet22Gv2.2 (antibody, V domains shown)
VH: QVQLVQSGAEVKKPGASVKVSCKASGYTFTDYNMDWVRQAPGQRLEWIGDLNPNNGATIYNQKFKGRATLTVDMSASTAYMELSSLRSEDTAVYYCARGNYYGNYYYLMDYWGQGTSVTVSS
VL: DIQMTQSPSSLSASVGDRVTITCRASENIYSTLAWYQQKPGKAPKLLVYAATNLADGVPSRFSGSGSGTDYTLTISSLQPEDFATYYCQHFWGTPYTFGQGTKVEIKR
notes: also called humanized (CDR-grafted) cMET-22
B2: hucMet27Gv1.3 (antibody, human IgG1, kappa)
light: EIVLTQSPATLSLSPGERATLSCRASESVDSYGNSFIHWYQQKPGQAPRLLIYRASNLESGIPARFSGSGSGTDFTLTISSLEPEDFAVYYCQQSNEEPLTFGQGTKVELKRTVAAPSVFIFPPSDEQLKSGTASVVCLLNNFYPREAKVQWKVDNALQSGNSQESVTEQDSKDSTYSLSSTLTLSKADYEKHKVYACEVTHQGLSSPVTKSFNRGEC
heavy: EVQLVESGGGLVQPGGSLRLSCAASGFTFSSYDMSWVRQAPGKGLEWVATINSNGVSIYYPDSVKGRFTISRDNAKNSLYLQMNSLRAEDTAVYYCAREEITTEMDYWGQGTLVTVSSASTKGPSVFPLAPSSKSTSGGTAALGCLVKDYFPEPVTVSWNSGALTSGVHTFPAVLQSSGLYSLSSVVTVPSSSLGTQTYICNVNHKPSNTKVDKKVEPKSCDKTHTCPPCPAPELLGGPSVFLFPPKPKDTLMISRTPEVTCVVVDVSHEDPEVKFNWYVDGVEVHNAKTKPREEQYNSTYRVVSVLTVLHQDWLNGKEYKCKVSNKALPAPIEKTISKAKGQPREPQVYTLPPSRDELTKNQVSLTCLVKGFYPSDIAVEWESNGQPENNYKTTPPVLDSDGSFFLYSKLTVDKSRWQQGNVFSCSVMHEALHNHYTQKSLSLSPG
notes: CDR-grafted cMET-27 with one S49A backmutation in VH; preferred construct
B3: hucMet27Gv1.3HingeIgG2S127C (antibody)
light: EIVLTQSPATLSLSPGERATLSCRASESVDSYGNSFIHWYQQKPGQAPRLLIYRASNLESGIPARFSGSGSGTDFTLTISSLEPEDFAVYYCQQSNEEPLTFGQGTKVELKRTVAAPSVFIFPPSDEQLKSGTASVVCLLNNFYPREAKVQWKVDNALQSGNSQESVTEQDSKDSTYSLSSTLTLSKADYEKHKVYACEVTHQGLSSPVTKSFNRGEC
heavy: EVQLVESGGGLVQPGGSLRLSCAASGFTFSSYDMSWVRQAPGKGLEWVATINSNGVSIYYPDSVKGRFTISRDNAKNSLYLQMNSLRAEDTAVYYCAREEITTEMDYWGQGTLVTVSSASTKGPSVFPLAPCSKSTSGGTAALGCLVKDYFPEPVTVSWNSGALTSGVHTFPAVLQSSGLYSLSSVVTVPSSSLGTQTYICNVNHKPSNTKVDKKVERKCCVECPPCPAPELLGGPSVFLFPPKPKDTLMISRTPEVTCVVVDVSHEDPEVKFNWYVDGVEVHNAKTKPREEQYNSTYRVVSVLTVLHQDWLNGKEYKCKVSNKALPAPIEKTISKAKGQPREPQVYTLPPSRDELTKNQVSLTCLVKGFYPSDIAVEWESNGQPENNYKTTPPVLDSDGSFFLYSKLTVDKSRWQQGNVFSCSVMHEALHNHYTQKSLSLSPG
B4: hucMet27Gv1.3Hinge26C442 (antibody)
light: EIVLTQSPATLSLSPGERATLSCRASESVDSYGNSFIHWYQQKPGQAPRLLIYRASNLESGIPARFSGSGSGTDFTLTISSLEPEDFAVYYCQQSNEEPLTFGQGTKVELKRTVAAPSVFIFPPSDEQLKSGTASVVCLLNNFYPREAKVQWKVDNALQSGNSQESVTEQDSKDSTYSLSSTLTLSKADYEKHKVYACEVTHQGLSSPVTKSFNRGEC
heavy: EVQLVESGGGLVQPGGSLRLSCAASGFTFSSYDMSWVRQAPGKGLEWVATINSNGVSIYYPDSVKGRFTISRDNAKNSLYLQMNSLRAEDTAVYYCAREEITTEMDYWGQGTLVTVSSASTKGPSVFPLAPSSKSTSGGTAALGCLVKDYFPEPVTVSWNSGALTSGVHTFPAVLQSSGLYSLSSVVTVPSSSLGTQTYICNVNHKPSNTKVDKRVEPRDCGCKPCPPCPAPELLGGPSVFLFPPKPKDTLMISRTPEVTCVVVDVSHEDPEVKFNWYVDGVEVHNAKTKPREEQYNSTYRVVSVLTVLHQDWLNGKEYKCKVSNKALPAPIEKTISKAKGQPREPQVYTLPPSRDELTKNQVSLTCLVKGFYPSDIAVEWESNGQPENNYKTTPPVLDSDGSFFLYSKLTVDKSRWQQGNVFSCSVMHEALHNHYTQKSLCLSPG
notes: Hinge#26 and C442 (Cysmab) variant of hucMet27Gv1.3
B5: hucMet27Gv1.3Hinge28 (antibody)
light: EIVLTQSPATLSLSPGERATLSCRASESVDSYGNSFIHWYQQKPGQAPRLLIYRASNLESGIPARFSGSGSGTDFTLTISSLEPEDFAVYYCQQSNEEPLTFGQGTKVELKRTVAAPSVFIFPPSDEQLKSGTASVVCLLNNFYPREAKVQWKVDNALQSGNSQESVTEQDSKDSTYSLSSTLTLSKADYEKHKVYACEVTHQGLSSPVTKSFNRGEC
heavy: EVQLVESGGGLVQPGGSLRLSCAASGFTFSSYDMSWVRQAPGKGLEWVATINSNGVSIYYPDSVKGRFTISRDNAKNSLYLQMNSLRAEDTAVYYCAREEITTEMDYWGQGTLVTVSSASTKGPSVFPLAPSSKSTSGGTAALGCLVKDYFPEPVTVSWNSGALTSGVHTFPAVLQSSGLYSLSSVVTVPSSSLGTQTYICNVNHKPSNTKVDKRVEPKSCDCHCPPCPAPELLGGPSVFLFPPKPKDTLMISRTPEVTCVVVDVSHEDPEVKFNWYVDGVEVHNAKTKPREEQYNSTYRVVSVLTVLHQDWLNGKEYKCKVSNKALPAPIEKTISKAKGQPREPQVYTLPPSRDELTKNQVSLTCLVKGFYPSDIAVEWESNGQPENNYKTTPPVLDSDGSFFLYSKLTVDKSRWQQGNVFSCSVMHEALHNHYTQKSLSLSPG
notes: Hinge#28 variant of hucMet27Gv1.3
B6: hucMet27Gv1.2 (antibody, human IgG1, kappa, V domains shown)
VH: EVQLVESGGGLVQPGGSLRLSCAASGFTFSSYDMSWVRQAPGKGLELVATINSNGVSIYYPDSVKGRFTISRDIAKNSLYLQMNSLRAEDTAVYYCAREEITTEMDYWGQGTLVTVSS
VL: EIVLTQSPATLSLSPGERATLSCRASESVDSYGNSFIHWYQQKPGQAPRLLIYRASNLESGIPARFSGSGSGTDFTLTISSLEPEDFAVYYCQQSNEEPLTFGQGTKVELKR
notes: CDR-grafted cMET-27 with backmutations only in the VH domain (W47L, S49A, N73I); also called v1.2 (CDR-grafted)
B7: hucMet27Gv1.3C442 (antibody)
light: EIVLTQSPATLSLSPGERATLSCRASESVDSYGNSFIHWYQQKPGQAPRLLIYRASNLESGIPARFSGSGSGTDFTLTISSLEPEDFAVYYCQQSNEEPLTFGQGTKVELKRTVAAPSVFIFPPSDEQLKSGTASVVCLLNNFYPREAKVQWKVDNALQSGNSQESVTEQDSKDSTYSLSSTLTLSKADYEKHKVYACEVTHQGLSSPVTKSFNRGEC
heavy: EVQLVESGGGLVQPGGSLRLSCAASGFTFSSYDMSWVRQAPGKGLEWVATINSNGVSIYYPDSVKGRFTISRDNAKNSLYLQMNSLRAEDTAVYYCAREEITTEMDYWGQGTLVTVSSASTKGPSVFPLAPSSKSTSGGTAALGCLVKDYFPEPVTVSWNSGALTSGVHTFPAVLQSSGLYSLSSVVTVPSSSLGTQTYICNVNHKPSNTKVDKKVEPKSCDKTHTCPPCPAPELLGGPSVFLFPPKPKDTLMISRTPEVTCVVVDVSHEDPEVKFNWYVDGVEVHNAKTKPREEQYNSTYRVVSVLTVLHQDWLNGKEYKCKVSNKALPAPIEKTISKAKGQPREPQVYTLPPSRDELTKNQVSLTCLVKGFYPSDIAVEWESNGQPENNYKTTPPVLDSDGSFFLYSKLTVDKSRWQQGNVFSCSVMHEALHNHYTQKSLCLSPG
notes: Cysteine-engineered (C442, Cysmab) form of hucMet27Gv1.3, tested unconjugated
B8: hucMet27v1.2 (antibody, human IgG1, kappa, V domains shown)
VH: EVQLVESGGGLVQPGGSLRLSCAASGFTFSSYDMSWVRQTPGKGLELVATINSNGVSIYYPDSVKGRFTISRDIAKNTLYLQMSSLRAEDTAMYYCAREEITTEMDYWGQGTSVTVSS
VL: DIVLTQSPASLAVSPGQRATISCRASESVDSYGNSFIHWYQQKPGQPPKLLIYRASNLESGIPARFSGSGSRTDFTLTINPVEANDVATYYCQQSNEEPLTFGGGTKLELKR
notes: also called hu247.27.16 v1.2 (resurfaced); hu247.27.16 LC1.2 / HC1.0

What was measured:
Human cMet-ECD-his = target: T1, Human cMet-ECD-his (human, UniProt P08581 25-932); assay: BLI (ForteBio), antibody on anti-hIgG Fc capture biosensor, soluble cMet-ECD-his 2.6-30 nM, 1:1 fit
T1 construct: extracellular domain; Soluble analyte in the ForteBio assay; also called hu cMet; soluble recombinant hu cMet protein; not shown: histidine-containing peptide (His tag)

Cyno cMet-ECD-his = target: T2, Cyno cMet-ECD-his (cynomolgus monkey); assay: as above
T2 construct: extracellular domain; Soluble analyte in the ForteBio assay; also called cynomolgus monkey cMet
Method: Briefly, each antibody was bound and immobilized onto an anti-hIgG Fc Capture biosensor and then incubated in the presence of different concentrations (2.6-30 nM) of His-tagged soluble cMet. The kinetics of binding were determined via ForteBio analysis binding using a 1:1 binding fit model.

T1 sequence (P08581 25-932): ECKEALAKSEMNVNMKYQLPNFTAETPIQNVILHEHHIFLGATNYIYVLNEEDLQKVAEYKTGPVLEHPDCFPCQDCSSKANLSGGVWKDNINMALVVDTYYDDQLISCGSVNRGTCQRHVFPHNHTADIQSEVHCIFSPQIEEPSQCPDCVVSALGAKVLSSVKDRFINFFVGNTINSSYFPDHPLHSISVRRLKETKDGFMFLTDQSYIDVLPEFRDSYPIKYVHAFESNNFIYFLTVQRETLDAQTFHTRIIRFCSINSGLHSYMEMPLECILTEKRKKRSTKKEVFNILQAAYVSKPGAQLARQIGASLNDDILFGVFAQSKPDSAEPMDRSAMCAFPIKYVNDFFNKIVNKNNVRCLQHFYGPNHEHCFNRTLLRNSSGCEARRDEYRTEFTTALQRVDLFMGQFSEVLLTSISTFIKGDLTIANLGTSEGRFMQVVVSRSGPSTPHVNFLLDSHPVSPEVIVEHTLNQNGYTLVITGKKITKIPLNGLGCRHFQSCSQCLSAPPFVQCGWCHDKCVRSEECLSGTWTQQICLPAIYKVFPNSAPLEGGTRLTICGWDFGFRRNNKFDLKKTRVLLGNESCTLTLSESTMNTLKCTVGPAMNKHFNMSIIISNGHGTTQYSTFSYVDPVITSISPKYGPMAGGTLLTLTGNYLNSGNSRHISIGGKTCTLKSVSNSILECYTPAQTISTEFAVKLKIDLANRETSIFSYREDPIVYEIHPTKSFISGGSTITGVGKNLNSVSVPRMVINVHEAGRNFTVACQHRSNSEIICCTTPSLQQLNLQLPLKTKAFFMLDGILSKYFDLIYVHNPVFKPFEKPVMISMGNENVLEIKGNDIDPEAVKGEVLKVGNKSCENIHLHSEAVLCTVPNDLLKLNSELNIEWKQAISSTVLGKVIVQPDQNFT

Binder	Kd (Human cMet-ECD-his)	koff (Human cMet-ECD-his)	kon (Human cMet-ECD-his)	Kd (Cyno cMet-ECD-his)	koff (Cyno cMet-ECD-his)	kon (Cyno cMet-ECD-his)
B1	4.77 nM	0.00213 s⁻¹	445000 M⁻¹ s⁻¹	3.62 nM	0.00128 s⁻¹	353000 M⁻¹ s⁻¹
B2	1.81 nM	0.000478 s⁻¹	264000 M⁻¹ s⁻¹	1.94 nM	0.000415 s⁻¹	214000 M⁻¹ s⁻¹
B3	1.67 nM	0.000436 s⁻¹	235000 M⁻¹ s⁻¹	1.47 nM	0.00045 s⁻¹	307000 M⁻¹ s⁻¹
B4	1.9 nM	0.000497 s⁻¹	262000 M⁻¹ s⁻¹	1.57 nM	0.000496 s⁻¹	317000 M⁻¹ s⁻¹
B5	1.96 nM	0.000451 s⁻¹	230000 M⁻¹ s⁻¹	1.68 nM	0.000564 s⁻¹	336000 M⁻¹ s⁻¹
B6	0.941 nM	0.000154 s⁻¹	266000 M⁻¹ s⁻¹	0.614 nM	0.000148 s⁻¹	241000 M⁻¹ s⁻¹
B7	1.64 nM	0.000447 s⁻¹	272000 M⁻¹ s⁻¹	1.6 nM	0.000439 s⁻¹	273000 M⁻¹ s⁻¹
B8	0.989 nM	0.000233 s⁻¹	236000 M⁻¹ s⁻¹	0.928 nM	0.000196 s⁻¹	212000 M⁻¹ s⁻¹
